# Experimental data taken from publication PMC7558026, “Exploring and applying the substrate promiscuity of a C-glycosyltransferase in the chemo-enzymatic synthesis of bioactive C-glycosides” (Nature Communications, 2020).
# Positions count from the first letter of the chain named. Names and notes keep the numbering of the source.
# B1: AbCGT V183E (Aloe vera; V183E) (protein)
# chain: MSNSGRPHVALLPSAGMGHLTPFCRLAALLSSRGGGDLDVSFITAEPTVSLKEYLQIRDLLSSFPSIKSHRFKVPELSPSQFPSSPDPFFQQWESIRRCAHLLPPLLASATALIIDTASASAVLPVAKQLNIPAYILFTSSASMLSLVAHFPSHVISSTSPSAPLMSNILIPGLKHPVPAAWEPPPLHVPGHIFSTLTVDNGRCLPEADGVIINTFDALEPEVLAALNGGRVAHGLPRVFAVGPLVAPPPPQQMEETGGGDYPIAWLDRQRDKSVVYVSFGSRTAMSPEQIRELAAGLERSGCSFLWVIKTKKVDRDEEETDLGALLGEGYVERVKGRGLVVNGWVEQEEILRHRAVGGFVSHCGWNSVTEAAVAGVRVLCWPRMGDQRLNAEVVRRSGVGVWMEEWSWEAEGGVVGGEEIGRRVKEMMEDEGLRDSAERVAEEARVALGVGGTSSKEMEEFISRIMMGS
# B2: AbCGT V183D (Aloe vera; V183D) (protein)
# chain: B1 chain with E183D
# Legend:
# [1] = tested on: Influenza A/WSN/33 (H1N1); experiment: microbe, parasite or virus in culture; type: cell-based; settings: ribavirin (positive control) at 30 μM, read-out: Inhibitory Rates, anti-influenza A virus activity
# [2] = substrate: O=C1C[C@@](O)(c2ccc(O)cc2)Oc2cc(O)cc(O)c21; experiment: Kinetic parameters of AbCGT variant V183E; type: biochemical, Aloe barbadensis; settings: other: V183E, UDP-Glc as donor; pH 7.4; 30.0 °C
# Method: (§1) Assays were performed in a final volume of 100 μL 50 mM Tris-HCl (pH 7.4) at 30 °C, and contained purified recombinant AbCGT (1.5 μg) and saturating UDP-Glc (5 mM) while varying phloracetophene (11) and phloretin (17) concentrations (5–500 μM), respectively. The reactions terminated by the addition of 200 μL of ice-cold methanol. Subsequently, samples were centrifuged at 15,000 × g for 30 min to collect the supernatant, and aliquots were analyzed by HPLC as described above. All experiments were performed in triplicate. The value of Km was calculated with the method of Lineweaver–Burk plot.
# (§2) Site-saturation mutagenesis of AbCGT at residue 183 was performed by PCR using pET28a-AbCGT as a template and the corresponding degenerate primers, which are listed in Supplementary Table 5. PCR products were purified and transformed into Trans1-T1 (DE3) E. coli. The sequences of pET28a-AbCGT mutants were confirmed by sequencing, and transformed into Transetta (DE3) E. coli for heterologous expression following protein purification.
# [3] = substrate: O=C1C[C@@](O)(c2ccc(O)cc2)Oc2cc(O)cc(O)c21; experiment: Kinetic parameters of AbCGT variant V183D; type: biochemical, Aloe barbadensis; settings: other: V183D, UDP-Glc as donor; pH 7.4; 30.0 °C
# Method: as §1, §2
molecule,measurement,setting,value
"NC(=O)c1ncn([C@@H]2O[C@H](CO)[C@@H](O)[C@H]2O)n1 [Ribavirin, reference compound]",inhibition at 30 µM,[1],85.6%
B1,Km,[2],325.4 ± 19.2 µM
same,kcat/Km,[2],0.0348 M⁻¹ s⁻¹
B2,Km,[3],209.3 ± 14.3 µM
same,kcat/Km,[3],0.0283 M⁻¹ s⁻¹
